Measurements taken from PMC4057782, “tRNA synthetase counteracts c-Myc to develop functional vasculature” (eLife, 2014).

Target: T1, GST-SerRS fusion protein (full-length human SerRS) (human, UniProt P49591 1-514)
T1 construct: also called GST-tagged SerRS
Experiment: pull-down; GST or GST-SerRS fusion proteins (full-length or domain fragments) incubated with recombinant His-tagged SIRT2 for two hours and pulled down on Glutathione-Sepharose 4B; 20 mM HEPES pH 7.9, 150 mM NaCl, 0.5 mM EDTA, 10% glycerol, 0.1% Triton X-100, 1 mM DTT; SIRT2 detected with anti-His6
Conditions: both partners purified

T1 sequence (P49591 whole entry, the tested form may be a part): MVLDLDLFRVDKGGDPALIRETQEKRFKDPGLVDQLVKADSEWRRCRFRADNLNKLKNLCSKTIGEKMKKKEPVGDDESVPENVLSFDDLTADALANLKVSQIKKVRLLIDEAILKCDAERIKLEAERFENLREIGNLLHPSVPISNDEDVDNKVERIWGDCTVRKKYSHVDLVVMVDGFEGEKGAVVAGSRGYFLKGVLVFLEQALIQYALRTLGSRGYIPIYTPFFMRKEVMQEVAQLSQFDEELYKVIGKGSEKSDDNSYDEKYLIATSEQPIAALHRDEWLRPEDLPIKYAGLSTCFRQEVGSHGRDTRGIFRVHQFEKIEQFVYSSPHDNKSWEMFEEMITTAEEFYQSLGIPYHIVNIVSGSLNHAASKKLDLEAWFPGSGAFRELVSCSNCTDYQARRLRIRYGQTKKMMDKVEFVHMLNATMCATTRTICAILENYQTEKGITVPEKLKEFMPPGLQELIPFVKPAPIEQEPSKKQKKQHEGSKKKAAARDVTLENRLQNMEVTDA

B1: purified His-tagged human SIRT2 (enzyme, UniProt Q8IXJ6 1-389, looked up)
chain: MAEPDPSHPLETQAGKVQEAQDSDSDSEGGAAGGEADMDFLRNLFSQTLSLGSQKERLLDELTLEGVARYMQSERCRRVICLVGAGISTSAGIPDFRSPSTGLYDNLEKYHLPYPEAIFEISYFKKHPEPFFALAKELYPGQFKPTICHYFMRLLKDKGLLLRCYTQNIDTLERIAGLEQEDLVEAHGTFYTSHCVSASCRHEYPLSWMKEKIFSEVTPKCEDCQSLVKPDIVFFGESLPARFFSCMQSDFLKVDLLLVMGTSLQVQPFASLISKAPLSTPRLLINKEKAGQSDPFLGMIMGLGGGMDFDSKKAYRDVAWLGECDQGCLALAELLGWKKELEDLVRREHASIDAQSGAGVPNPSTSASPKKSPPPAKDEARTTEREKPQ
notes: The SIRT2 of the deacetylase assay is called only 'recombinant human SIRT2'; it may have come from the CycLex kit; also called recombinant SIRT2; His-tagged SIRT2; not shown: His tag, C-terminal, kept
binding result: binds
